The record followed here is patent US20230183331A1.

The target in this assay is IL-2 receptor (IL-2R) on primary pan T-cells from healthy donors (human) (UniProt P01589). Briefly: cell-based or functional assay.
IL-2 receptor (IL-2R) on primary pan T-cells from healthy donors (human), sequence (P01589 22-272, chain 1 of 3): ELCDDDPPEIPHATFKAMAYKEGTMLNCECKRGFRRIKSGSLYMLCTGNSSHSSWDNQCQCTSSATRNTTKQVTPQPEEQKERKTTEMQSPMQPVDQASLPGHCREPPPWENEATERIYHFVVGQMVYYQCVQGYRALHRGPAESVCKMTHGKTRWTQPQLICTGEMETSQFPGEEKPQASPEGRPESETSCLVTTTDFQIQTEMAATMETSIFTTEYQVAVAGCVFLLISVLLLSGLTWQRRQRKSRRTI
IL-2 receptor (IL-2R) on primary pan T-cells from healthy donors (human), sequence (P14784 27-551, chain 2 of 3, further chain): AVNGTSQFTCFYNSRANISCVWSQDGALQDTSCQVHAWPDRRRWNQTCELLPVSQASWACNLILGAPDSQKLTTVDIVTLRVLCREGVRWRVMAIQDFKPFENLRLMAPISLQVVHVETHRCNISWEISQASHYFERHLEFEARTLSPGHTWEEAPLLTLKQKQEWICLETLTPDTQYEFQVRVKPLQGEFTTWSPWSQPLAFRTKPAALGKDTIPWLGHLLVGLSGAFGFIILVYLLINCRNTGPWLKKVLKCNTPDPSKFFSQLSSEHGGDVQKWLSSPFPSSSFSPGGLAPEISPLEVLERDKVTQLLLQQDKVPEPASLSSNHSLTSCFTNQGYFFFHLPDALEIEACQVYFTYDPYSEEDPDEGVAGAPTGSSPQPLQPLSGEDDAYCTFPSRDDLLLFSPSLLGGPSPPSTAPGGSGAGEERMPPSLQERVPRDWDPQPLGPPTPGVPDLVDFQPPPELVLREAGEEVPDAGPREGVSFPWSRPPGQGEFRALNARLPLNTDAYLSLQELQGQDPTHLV
IL-2 receptor (IL-2R) on primary pan T-cells from healthy donors (human), sequence (P31785 23-369, chain 3 of 3, further chain): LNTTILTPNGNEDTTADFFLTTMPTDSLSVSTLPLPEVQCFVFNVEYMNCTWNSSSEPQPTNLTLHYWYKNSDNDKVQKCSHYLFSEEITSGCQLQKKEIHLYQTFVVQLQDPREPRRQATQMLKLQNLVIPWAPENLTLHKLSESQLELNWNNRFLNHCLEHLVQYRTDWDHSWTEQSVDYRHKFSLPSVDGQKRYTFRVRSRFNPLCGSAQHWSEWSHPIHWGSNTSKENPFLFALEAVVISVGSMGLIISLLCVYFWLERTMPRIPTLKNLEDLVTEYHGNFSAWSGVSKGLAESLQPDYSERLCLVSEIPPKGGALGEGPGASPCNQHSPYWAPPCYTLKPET

For “Aldesleukin (from UniProt P60568 22-153) (ligand)”, the CD8 EC50 (nM), STAT5 phosphorylation was determined as 9.07 nM; the CD8 naïve EC50 (nM), STAT5 phosphorylation came to 477 nM; the Treg EC50 (nM), STAT5 phosphorylation is 0.019 nM.
